{
  "source": "IntAct's records for PubMed 22328087",
  "parents": {"B1": {"name": "Membrane protein MLC1 (Homo sapiens), Q15049 (parent)", "chain": "MTQEPFREELAYDRMPTLERGRQDPASYAPDAKPSDLQLSKRLPPCFSHKTWVFSVLMGSCLLVTSGFSLYLGNVFPAEMDYLRCAAGSCIPSAIVSFTVSRRNANVIPNFQILFVSTFAVTTTCLIWFGCKLVLNPSAININFNLILLLLLELLMAATVIIAARSSEEDCKKKKGSMSDSANILDEVPFPARVLKSYSVVEVIAGISAVLGGIIALNVDDSVSGPHLSVTFFWILVACFPSAIASHVAAECPSKCLVEVLIAISSLTSPLLFTASGYLSFSIMRIVEMFKDYPPAIKPSYDVLLLLLLLVLLLQAGLNTGTAIQCVRFKVSARLQGASWDTQNGPQERLAGEVARSPLKEFDKEKAWRAVVVQMAQ"}},
  "data": [
    {"variants_of": "B1", "conditions": "with at1b1_human ATP1B1, P05026", "values": [
      {"variant": "S246R", "effect of a mutation on the interaction": "decreasing interaction"},
      {"variant": "S280L", "effect of a mutation on the interaction": "decreasing interaction"}
    ]},
    {"variants_of": "B1", "conditions": "with at1b1_human ATP1B1, P05026", "remark": "another data set of the same source", "values": [
      {"variant": "C125R", "effect of a mutation on the interaction": "disrupting interaction"},
      {"variant": "S280L", "effect of a mutation on the interaction": "disrupting interaction"}
    ]}
  ]
}
